One data set has as its system LNCaP tumor xenografts. Nature of the data set: OTL78 whole body imaging and tissue biodistribution, subcutaneous tumor. In kind it is in vivo, mice. Conditions: 10 nmol, 2 h.
The nature of data set [1]: Concentration dependent UV spectrometric study of higher order aggregates. In kind it is physicochemical. The note with it: 75 μM in saline. As to the method: Possible OTL78-related hypersensitivity in human was next examined using basophil activation assay. Drug related hypersensitivity is mainly due to immune response caused by cross-linking of immunoglobulin E (IgE) expressed on mast cells and basophils (FIG. 47D) resulting in activation and subsequent degranulation to release vasoactive amines, prostaglandins, and cytokines (29). Since cross-linking of IgE can be due to aggregates, concentration dependent UV spectrometric studies were conducted to determine higher order aggregates of OTL78.

Another data set has as its system A549 tumor xenografts. Nature of the data set: OTL78 whole body imaging and tissue biodistribution, subcutaneous tumor. Format: in vivo, mice. The note with it: 10 nmol, 2 h.
A further data set deals with basophils. Nature of the data set: Basophil activation test (Flow CAST) in human blood samples. In kind it is cell-based. The protocol: Tolerability Studies: The blood samples were collected into hirudin tubes and used within an hour of collection. For each donor, 4 different tubes were prepared for allergen, positive controls, and negative control. Samples were analyzed using Flow CAST® high sensitivity Basophil Activation Test (BAT). Briefly, stimulation buffer (100 μL, background) or anti-FcεER antibody (100 μL) or fMLP (100 μL) or OTL78 (75 μM in 100 μL of saline) was added to tubes containing stimulation buffer (200 μL). 100 μL of blood was added to each tube and mixed gently. After adding staining reagent (40 μL) containing anti-CD63-CD203c-PE-DY647 and anti-CCR3-PE, each tube was mixed gently and incubated for 15 minutes at 37° C. Lysing reagent (2 mL) was added to each tube, mixed gently, incubated for 5-10 minutes at room temperature, and centrifuged for 5 minutes at 500×g. The supernatant was discarded and the cells were re-suspended in wash buffer (900 μL) and analyzed using flow cytometry. CD63-CD203c-PE-DY647+/CCR3-PE+ cell population considered as the activated basophils.

A further data set relates to PSMA-negative PC3 cells. Nature of the data set: OTL78 binding to PSMA-negative cells, cell bound fluorescence by fluorometer. The arrangement: species or system human. The note with it: 30 min at 4° C. As to the method:
(§1) For OTL78 binding affinity, 22Rv1 or PC3 cells were seeded into a T75 flask and allowed to form a monolayer over 48 h. After trypsin digestion, cells were transferred into centrifuge tubes (1×10^6 cells/tube) and centrifuged. The medium was replaced with fresh medium containing increasing concentration of OTL78 and incubated for 30 min at 4° C. After rinsing with fresh medium (2×1.0 mL) and saline (1×1.0 mL), cells were lysed with 1% SDS with in saline (1.0 mL) and cell bound fluorescence was analyzed using a fluorometer (Cary Eclipse, Agilent Technologies). The binding affinity (Kd) was calculated using a plot of percent cell bound fluorescence versus concentration using GraphPad Prism 6.

Another data set deals with T1, PSMA on 22Rv1 cells (Homo sapiens, UniProt Q04609).
T1 construct: host or cells: 22Rv1 human prostate cancer cells
T1 sequence (Q04609 whole entry): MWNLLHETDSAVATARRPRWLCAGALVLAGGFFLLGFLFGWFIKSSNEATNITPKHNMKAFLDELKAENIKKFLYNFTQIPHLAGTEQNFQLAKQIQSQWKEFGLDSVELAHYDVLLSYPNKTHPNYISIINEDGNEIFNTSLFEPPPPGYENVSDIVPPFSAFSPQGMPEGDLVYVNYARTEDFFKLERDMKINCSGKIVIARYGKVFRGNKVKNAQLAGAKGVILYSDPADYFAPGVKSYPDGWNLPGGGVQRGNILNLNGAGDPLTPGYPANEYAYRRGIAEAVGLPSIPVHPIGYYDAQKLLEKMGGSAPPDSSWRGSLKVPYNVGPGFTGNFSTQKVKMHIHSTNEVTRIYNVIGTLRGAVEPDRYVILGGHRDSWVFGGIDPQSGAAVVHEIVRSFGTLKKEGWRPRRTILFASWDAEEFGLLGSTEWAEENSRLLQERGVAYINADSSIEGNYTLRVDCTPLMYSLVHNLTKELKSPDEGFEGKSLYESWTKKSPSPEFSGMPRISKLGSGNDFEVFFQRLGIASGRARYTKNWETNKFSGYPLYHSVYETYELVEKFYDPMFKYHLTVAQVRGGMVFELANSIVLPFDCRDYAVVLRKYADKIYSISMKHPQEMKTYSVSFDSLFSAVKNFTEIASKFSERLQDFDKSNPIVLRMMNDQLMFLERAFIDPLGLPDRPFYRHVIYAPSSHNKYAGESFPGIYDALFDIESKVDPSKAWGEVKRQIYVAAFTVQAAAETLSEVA
Nature of the data set: OTL78 binding affinity (Kd), cell bound fluorescence by fluorometer. The note with it: 30 min at 4° C. As to the method: as §1

The structures appear in SMILES notation.

In general, Kd refers to the free concentration of one partner at which half of the binding sites on the other are occupied at equilibrium, for simple one-to-one binding. Read a low Kd as higher affinity.

Protocol for A549 tumor xenografts: (§2) Whole body Imaging & Tissue biodistribution: Seven-week-old male nu/nu mice were inoculated subcutaneously with 5.0×106 22Rv1, LNCaP, PC3 or A549 cells/mouse in 50% high concentrated matrigel with RPMI1640 medium on the shoulder. Growth of the tumors was measured in perpendicular directions every 2 days using a caliper (body weights were monitored on the same schedule), and the volumes of the tumors were calculated as 0.5×L×W2 (L=longest axis and W=axis perpendicular to L in millimeters). Once tumors reached approximately 300-400 mm3 in volume, animals (3-5 mice/group) were intravenously injected with appropriate dose of OTL78 in saline.
(§3) For whole body imaging and biodistribution studies, animals were euthanized after 2 h of administration of OTL78 by CO2 asphyxiation. For time dependent studies, animals were imaged under anesthesia using isoflurane. Imaging experiments were then performed using IVIS or AMI image systems. Following whole body imaging, animals were dissected and selected tissues were analyzed for fluorescence activity using IVIS or AMI image system and ROI of the tissues were calculated using Living Image 4.0 software or AMIView Image Analysis Software.
Protocol for LNCaP tumor xenografts: as §2, §3

On to `CC1(C)C(/C=C/C2=C(Oc3ccc(C[C@H](NC(=O)[C@H](Cc4ccccc4)NC(=O)CCOCCOCCNC(=O)CC[C@H](NC(=O)N[C@@H](CCC(=O)O)C(=O)O)C(=O)O)C(=O)O)cc3)C(=C/C=C3/N(CCCCS(=O)(=O)O)c4ccc(S(=O)(=O)O)cc4C3(C)C)/CCC2)=[N+](CCCCS(=O)(=O)[O-])c2ccc(S(=O)(=O)O)cc21` [OTL78], for which the “accumulation in LNCaP tumors” value in the data set with LNCaP tumor xenografts is given as “accumulated predominantly”. Besides, in data set [1], the “higher order aggregates (UV spectra), in words” value is “no noticeable higher order aggregates”. Moreover, the “fluorescence intensity of A549 tumors compared to 22Rv1 tumors” value in the data set on A549 tumor xenografts is on record as roughly 6 folds less. Also, in the data set on basophils (FIG. 47E, ≥2 considered positive response), the “stimulated index” value was determined as 1. Besides, the “Percent of basophile activation, Avg” value in the data set with basophils (average of 3 healthy subjects) was 2.8%. Besides, in the data set on basophils (healthy subjects, OTL78 75 μM), the “Percent of basophile activation, Subject 1” value is reported as 2.64%; the “Percent of basophile activation, Subject 2” value was found to be 2.67%; the “Percent of basophile activation, Subject 3” value is reported as 3.14%. The “SI = Avg/background” value in the data set with basophils (stimulation index, ≥2 considered positive response) stood at 1.1. Moreover, the “binding to PSMA-negative PC3 cells” value in the data set with PSMA-negative PC3 cells is “did not bind”. For the same compound, binding at PSMA on 22Rv1 cells was characterised by a dissociation constant (Kd) of 4.7 nM.

(Values after US11484607B2, “PSMA-targeted NIR dyes and their uses” (On Target Laboratories, LLC, priority 2015, dated 2022).)
